# Data from US20180289802A1 (CELGENE, published 2018).
# T1: murine PD-1 (mouse, UniProt Q02242 25-167, limits assumed)
# T1 construct: also called mouse PD-1
# T1 sequence (looked up): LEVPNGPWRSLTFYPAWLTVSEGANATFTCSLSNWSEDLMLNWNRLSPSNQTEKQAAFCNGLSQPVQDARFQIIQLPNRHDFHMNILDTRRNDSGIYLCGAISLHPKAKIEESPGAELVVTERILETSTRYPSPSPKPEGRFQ
# How the values were obtained:
# [1] = target: T2, human PD-1 expressed on cells (human, UniProt Q15116 25-198); experiment: cell-based or functional assay
# [2] = target: T2, human PD-1 expressed on cells; experiment: competition with DyL650-PD-L1 for binding to cell surface human PD-1 (CHO), flow cytometry
# [3] = target: T2, human PD-1 expressed on cells; experiment: cell-based or functional assay; remark: listed apart in the source
# [4] = target: T3, human PD-1 (soluble / purified antigen, construct not stated) (human, UniProt Q15116 25-170, limits assumed); experiment: Biacore (SPR), n = 4; Biacore, n = 4 (not KinExA 575 pM)
# T3 construct: also called soluble antigen
# T3 sequence (Q15116 25-170 limits assumed): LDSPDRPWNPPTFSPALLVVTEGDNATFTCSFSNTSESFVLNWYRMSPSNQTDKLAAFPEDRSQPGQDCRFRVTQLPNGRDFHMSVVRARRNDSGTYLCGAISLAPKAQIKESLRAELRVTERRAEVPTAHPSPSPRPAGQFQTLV
# [5] = target: T2, human PD-1 expressed on cells; experiment: cell-based or functional assay; remark: listed apart in the source
# [6] = target: T3, human PD-1 (soluble / purified antigen, …); experiment: KinExA, n = 2
# [7] = target: T3, human PD-1 (soluble / purified antigen, …); experiment: Biacore (SPR), n = 2
# [8] = target: T3, human PD-1 (soluble / purified antigen, …); experiment: KinExA, n = 1
# [9] = target: T1, murine PD-1; experiment: assay not described; stated in the discussion of the crystal structure
# T2 sequence (Q15116 25-198 limits assumed): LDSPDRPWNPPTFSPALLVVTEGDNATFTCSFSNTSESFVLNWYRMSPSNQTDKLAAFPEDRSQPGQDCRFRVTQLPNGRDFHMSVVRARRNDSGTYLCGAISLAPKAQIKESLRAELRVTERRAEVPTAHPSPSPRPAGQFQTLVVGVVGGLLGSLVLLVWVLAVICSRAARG
"IL-2 EC50, human whole blood assay [1] [nM]","hIFN-γ EC50, human whole blood assay [1] [nM]","hIL-17 EC50, human whole blood assay [1] [nM]",IC50 [2] [nM],"IFN-γ EC50, PBMC reactivation assay [3] [nM]","IFN-γ EC75, PBMC reactivation assay [3] [nM]","IL-2 EC50, PBMC reactivation assay [3] [nM]","IL-2 EC75, PBMC reactivation assay [3] [nM]","IL-17 EC50, PBMC reactivation assay [3] [nM]","IL-17 EC75, PBMC reactivation assay [3] [nM]",Kd [4] [nM],CD4+ T cell IL-2 inhibition (EC50) [5] [nM],Kd [6] [nM],Kd [7] [nM],Kd [8] [nM],binding result [9],Binder
8.3,5.9,7.2,> 100,46,85,21,40,41,65,5,22,0.575,,,,"PD1AB-1 (antibody, V domains shown, also called parental clone PD1AB-1; HC/LC TOPO vector 3015/3017) VH: EVQLVQSGAEVKKPGATVKISCKVSGFNIKDTYMHWVQQAPGKGLEWMGRIDPANGDRKYDPKFQGRVTITADTSTDTAYMELSSLRSEDTAVYYCARSGPVYYYGSSYVMDYWGQGTTVTVSS VL: DIVMTQSPDSLAVSLGERATINCKSGQSVLYSSNQKNFLAWYQQKPGQPPKLLIYWASTRESGVPDRFSGSGSGTDFTLTISSLQAEDVAVYYCHQYLYSWTFGQGTKLEIKR"
8.4,7.6,8.9,> 100,58,91,24,42,36,59,,27,,5,0.425,,"PD1AB-2 (antibody, V domains shown, also called HC/LC TOPO vector 3015/3193) VH: EVQLVQSGAEVKKPGATVKISCKVSGFNIKDTYMHWVQQAPGKGLEWMGRIDPANGDRKYDPKFQGRVTITADTSTDTAYMELSSLRSEDTAVYYCARSGPVYYYGSSYVMDYWGQGTTVTVSS VL: not shown"
,,,> 100,,,24,46,,,,21,,7,0.35,,"PD1AB-3 (antibody, V domains shown, also called HC/LC TOPO vector 3653/3646) VH: EVQLVQSGAEVKKPGATVKISCKVSGFNIKDTYMHWVQQAPGKGLEWMGRIDPANGDRKYDPKFQGRVTITADTSTNTAYMELSSLRSEDTAVYYCARSGPVYYYGSSYVMDYWGQGTTVTVSS VL: DIVMTQSPDSLAVSLGERATINCKSGQSVLYSSNQKNFLAWYQQKPGQPPKLLIYWASTRESGVPDRFSGSGSGTDFTLTISNLQAEDVAVYYCHQYLYSWTFGQGTKLEIKR"
4,4.1,3.6,> 100,36,67,24,33,37,56,,16,,6,0.45,no binding,"PD1AB-6 (antibody, IgG1, V domains shown, also called HC/LC TOPO vector 3650/3017) VH: EVQLVQSGAEVKKPGATVKISCKASGFNIKDTYMHWVQQAPGKGLEWMGRIDPANGDRKYDPKFQGRVTITADTSTDTAYMELSSLRSEDTAVYYCARSGPVYYYGSSYVMDYWGQGTTVTVSS VL: DIVMTQSPDSLAVSLGERATINCKSGQSVLYSSNQKNFLAWYQQKPGQPPKLLIYWASTRESGVPDRFSGSGSGTDFTLTISSLQAEDVAVYYCHQYLYSWTFGQGTKLEIKR"
10.2,9.2,9.9,> 100,34,64,20,39,27,52,,23,,6,0.5,,"PD1AB-4 (antibody, V domains shown, also called HC/LC TOPO vector 3653/3193) VH: EVQLVQSGAEVKKPGATVKISCKVSGFNIKDTYMHWVQQAPGKGLEWMGRIDPANGDRKYDPKFQGRVTITADTSTNTAYMELSSLRSEDTAVYYCARSGPVYYYGSSYVMDYWGQGTTVTVSS VL: not shown"
,,,> 100,,,36,58,,,,15,,6,0.4,,"PD1AB-5 (antibody, V domains shown, also called HC/LC TOPO vector 3650/3193) VH: EVQLVQSGAEVKKPGATVKISCKASGFNIKDTYMHWVQQAPGKGLEWMGRIDPANGDRKYDPKFQGRVTITADTSTDTAYMELSSLRSEDTAVYYCARSGPVYYYGSSYVMDYWGQGTTVTVSS VL: not shown"
